Here are results for 40 sequences from the nanobody polyreactivity screen of Harvey et al. (2022).

This series is described as follows: yeast display, Sf9 membrane polyspecificity reagent, FACS + sequencing; frameworks hold sequencing errors. The procedure, abridged:
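Nanobodies from a synthetic yeast display library (Saccharomyces cerevisiae BJ5465), induced 36–48 hours with galactose, were stained 1 hour at 4 °C with 10% biotinylated, detergent-solubilized Sf9 membrane reagent, enriched on streptavidin microbeads, then FACS-sorted. Anti-HA (expression) and streptavidin (reagent binding) fluorescence set low and high (top ~1%) gates. Polyreactivity labels come from the gate of origin. Genes were colony-PCR amplified, MiSeq 2 × 250 sequenced and filtered by CDR length.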
Regarding “QVQLVESGGGLVQAGGSLRLSCAASGSIFVVYSMGWYRQAPGKERELVAAISWGIGSTYYADSVKGRFTISRDNAKNTVYLQMNSLKPEDTALYYCAADTDIVLYDYWGQGTQVTVSS”, the “polyreactivity (PSR sort gate)” value was “low polyreactivity”.

For the sequence “QVQLVESGGGLVQAGGSLRLSCAASGSIFVWNAMGWYRQAPGKERELVAAISYTDGSTYYADSVKGRFTISRDNAKNTVYLQMNSLKPEDTAVYYCAAAITPSYTGSEYDYWGQGTQVTVSS”, the “polyreactivity (PSR sort gate)” value is listed as “low polyreactivity”.

As to “QVQLVESGGGLVQAGGSLRLSCAASGSIFVWNAMGWYRQAPGKERELVARIRYSSNTYYADSVKGRFTISRDNAKNTVYLQMNSLKPEDTAVYYCAAGSTRYAGWTYNYWGQGTQVTVSS”, the “polyreactivity (PSR sort gate)” value is “high polyreactivity”.

As to “QVQLVESGGGLVQAGGSLRLSCAASGSIFVWYAMGWYRQAPGKERELVAAINWSGGRTYYADSVKGRFTISRDNAKNTVYLQMNSLKPEDTAVSYCNKVVPGYSAAKYDYWGQGTQVTVSS”, the “polyreactivity (PSR sort gate)” value is “high polyreactivity”.

For the sequence “QVQLVESGGGLVQAGGSLRLSCAASGSIFVWYAMGWYRQAPGKERELVAAISSSGDNTYYADSVKGRFTISRDNAKNTVYLQMNSLKPEDTAVYYCAAKSYWGQGTQVTVSS”, the “polyreactivity (PSR sort gate)” value is “high polyreactivity”.

On to “QVQLVESGGGLVQAGGSLRLSCAASGSIFVYNTMGWYREAPGKERELVASITYSGGSTYYADSVKGRFTISRDNAKNTVYLQMNSLKPEDTAVYYCNTDDVALQWDWYPYPYDYWGQGTQVTVSS”, for which the “polyreactivity (PSR sort gate)” value was “low polyreactivity”.

In the case of “QVQLVESGGGLVQAGGSLRLSCAASGSIFVYNVMGWYRQAPGKERELVAAINYSGVSTYYADSVKGRFTISRDNAKNTVYLQMNSLKPEDTAVYYCAAEYEFGHSSTPMDYWGQGTQVTVSS”, the “polyreactivity (PSR sort gate)” value is “high polyreactivity”.

As to “QVQLVESGGGLVQAGGSLRLSCAASGSIFVYYAMGWYRQAPGKEREFVATISSSGGSTYYADSVKGRFTISRDNAKNTVYLQRNSLKPEDTAVYYCNRRYFFFYGHSFDYWGQGTQVTVSS”, the “polyreactivity (PSR sort gate)” value is “high polyreactivity”.

For the sequence “QVQLVESGGGLVQAGGSLRLSCAASGSIFVYYAMGWYRQAPGKERELVAAISKTGGRTYYADSVKGRFTISRDNAKNTVYLQMNSLKPEDTAVYYCAARYTIRYKRYDYWGQGTQVTVSS”, the “polyreactivity (PSR sort gate)” value is listed as “high polyreactivity”.

Take “QVQLVESGGGLVQAGGSLRLSCAASGSIFVYYGMGWYRQAPGKEWELVAAMSSGGSSHYADSVKGRFTISRVTAKNSVYLQMNSLKPEDTAVYYCPADGFFWQRSYTRYYYWGQGSQVTVSS”: the “polyreactivity (PSR sort gate)” value was “low polyreactivity”.

On to “QVQLVESGGGLVQAGGSLRLSCAASGSIFVYYVMGWYRQAPGKERELVAAISSGGRTYYADSVKGRFTISRDNAKNTVYLQMNSLKPEDTAVYYCAARPIRPASEVNYWGQGTQVTVSS”, for which the “polyreactivity (PSR sort gate)” value is “low polyreactivity”.

On to “QVQLVESGGGLVQAGGSLRLSCAASGSIFWANAMGWYRPAPGKERELVAAINFRATITYYPASVKGRFTISRDNAKNTVYLQMNSRKPEDTAVYYCAKAQAQRYSFYYWGQGTQVTVSS”, for which the “polyreactivity (PSR sort gate)” value is “high polyreactivity”.

As for “QVQLVESGGGLVQAGGSLRLSCAASGSIFWFNAMGWYRQAPGKEREFVASISRSGGTTYYADSVKGRFTISRDTAKNTVYLQMYSLKPEDTAVYYCNARAYGNGLGTGYFGKHRYDYWGQGTQVTVSS”, the “polyreactivity (PSR sort gate)” value is given as “low polyreactivity”.

As for “QVQLVESGGGLVQAGGSLRLSCAASGSIFWFNAMGWYRQAPGKERELVAAINSSGGRTYYADSVKGRFTISRDNAKNTVYLQMNSLKPEDTAVYYCNALLWGNPASYGYWGQGTQVTVSS”, the “polyreactivity (PSR sort gate)” value was “high polyreactivity”.

As to “QVQLVESGGGLVQAGGSLRLSCAASGSIFWFNAMGWYRQAPGKERELVAAITITGGSTYYADSVKGRFTISRDNAKNTVYLQMNSLKPEDTAVYYCAAGTGSRDDYWGQGTQVTVSS”, the “polyreactivity (PSR sort gate)” value was “high polyreactivity”.

Regarding “QVQLVESGGGLVQAGGSLRLSCAASGSIFWGNAMGWYRQAPGKERELVAAIRRGTSTYYADSVKGRFTISRDNAKNTVYLQMNSLKPEDTAVYYCAAEGWTTPTPTSDDNQWWYDYWGQGTQVTVSS”, the “polyreactivity (PSR sort gate)” value is “high polyreactivity”.

Turning to “QVQLVESGGGLVQAGGSLRLSCAASGSIFWGNDMGWYRQAPGKERELVAGIRNSGTSTYYADSVKGRFTISRDHAKNTVYLQMNSLKPEDTAVYYCAAADGRQYSRYYWRGHDYWGQGTQVTVSS”, the “polyreactivity (PSR sort gate)” value was “low polyreactivity”.

In the case of “QVQLVESGGGLVQAGGSLRLSCAASGSIFWGTAMGWERQAPGKERELVAAISWSGGSTYYADSVKGRFTISRDNAKNTVDLQMHSLKPEDTAVYYCAARFKRVGSIPYYYWGQGTQVTVSS”, the “polyreactivity (PSR sort gate)” value is “high polyreactivity”.

With “QVQLVESGGGLVQAGGSLRLSCAASGSIFWGYAMGWYRQAPGKERELVAAISSSGGNTYYADSVKGRFTISRDNAKNTVYLQMNSLKPEDTAVYYCAATPEFYGGKITDVYSQYGYWGQGSQVTVSS”, the “polyreactivity (PSR sort gate)” value was “low polyreactivity”.

Take “QVQLVESGGGLVQAGGSLRLSCAASGSIFWINAMGWCRQAPGKEREFVADIDVSGGSTYYADSVKGRFTISRDNAKNTVYLQMNSLKPEDTAVYYCAADDYWAYLYYKTSEYYYWGQGTQVTVSS”: the “polyreactivity (PSR sort gate)” value was “low polyreactivity”.

Consider “QVQLVESGGGLVQAGGSLRLSCAASGSIFWLYAMGWYRQAPGKERELVATISSTGSTDYADSVKGRFTISRDNAKNTVYLQMNSLKPEDTAVYYCATDVFYSIFTPSPFEYDYWGQGTQVTVSS”, for which the “polyreactivity (PSR sort gate)” value is on record as “high polyreactivity”.

As to “QVQLVESGGGLVQAGGSLRLSCAASGSIFWNNAMGWSRQAPGKERELVAAISKSGTRTYYADSVKGRFTISRDNAKNTVYLQMNSLKPEDTAVYYCNALLRDSGTYAGDDYWGQGTQVTVSS”, the “polyreactivity (PSR sort gate)” value was “high polyreactivity”.

For “QVQLVESGGGLVQAGGSLRLSCAASGSIFWNNAMGWYRQAPGKEREFVATITWSGDSTYYADSVKGRFTISRDNAKNTVYLQMNSLKPEDTAVYYCAALLDYSVADLYSHHVSRYYYWGQGTQVTVSS”, the “polyreactivity (PSR sort gate)” value is recorded as “low polyreactivity”.

For the sequence “QVQLVESGGGLVQAGGSLRLSCAASGSIFWQNTMGWYRQAPGKERELVAAISWSGGRTYYADSVKGRFTISRDNAKNTVSLPMNSLKPEDTAVYYCNKLLSQRRYHSEMDYWGQGTQVTVSS”, the “polyreactivity (PSR sort gate)” value is “high polyreactivity”.

For the sequence “QVQLVESGGGLVQAGGSLRLSCAASGSIFWRNAMGWYRQAPGKERELVAAITSGGTTNYADSVKGRFTISRDNAKNTVYLQMNSLKPEDTAVYYCATGASYLRRYDHPHSDVDYWGQGTQVTVSS”, the “polyreactivity (PSR sort gate)” value is “low polyreactivity”.

Take “QVQLVESGGGLVQAGGSLRLSCAASGSIFWSNAMGWYRQAAGKERELVASITRSGGSTYYADSVKGRFTISRDNAKNTVYLQMNSLKPEDTAVYYCAARTRGSSYHFDYWGQGTQVTVSS”: the “polyreactivity (PSR sort gate)” value is “high polyreactivity”.

In the case of “QVQLVESGGGLVQAGGSLRLSCAASGSIFWSNAMGWYRQAPGKEREFVAAITWSGDNTYYADSVKGRFTISRDNAKNTVYLQMNSLKPEDTAVYYCNTEWGLFYDWTVLHIYLHGYYYWGQGTQVTVSS”, the “polyreactivity (PSR sort gate)” value is reported as “low polyreactivity”.

For “QVQLVESGGGLVQAGGSLRLSCAASGSIFWSNSMGWDRQAPGKERELDAAISQDGGSTNYADSVKGRFTISRDNAKNTVYLQMTSQKPEDTAVYYCAVKYWSYEPPSYSIEYGYWGQGTQVTVSS”, the “polyreactivity (PSR sort gate)” value is listed as “low polyreactivity”.

With “QVQLVESGGGLVQAGGSLRLSCAASGSIFWSYAMGWYRQAPGKEREFVAAIRGRGGNTYADSVKGRFTISRDNAKNTVYLQMNSLKPEDTAVYYCAAPLLRDLRSPYSYNYWGQGTQVTVSS”, the “polyreactivity (PSR sort gate)” value was “low polyreactivity”.

As to “QVQLVESGGGLVQAGGSLRLSCAASGSIFWSYDMGWYRQAPGKERELVPTITSGDSTYYADSVKGRFTISRDNAKNTVYLQMNSLKPEDTAVYYCAAGTYYRRTYWHREYDYWGQGTQVTVSS”, the “polyreactivity (PSR sort gate)” value is given as “low polyreactivity”.

As to “QVQLVESGGGLVQAGGSLRLSCAASGSIFWSYGMGWYIQAPGKERELVASTRYADSVKERFTISRDNAKNTVYLLMNSLKPEDTAVYYCAADVWTLDPDEYDYWGQGTQVTVSS”, the “polyreactivity (PSR sort gate)” value is on record as “low polyreactivity”.

“QVQLVESGGGLVQAGGSLRLSCAASGSIFWSYGMGWYRQAPGKERELVASTRYADSVKGRFTISRDNAKNTVYLQMNSLKPEDTAVYYCNVRYYGYRFGDDYWGQGTQVTVSS”: the “polyreactivity (PSR sort gate)” value is “low polyreactivity”.

As for “QVQLVESGGGLVQAGGSLRLSCAASGSIFWTNAMGCYIQAPGKERELVAAITGGGTTYYADSVKGRFTISRDNAKNTVYLQMNSLKPEDTAVVYTVSSAQYDYWGQGTQVTVSS”, the “polyreactivity (PSR sort gate)” value is “low polyreactivity”.

Turning to “QVQLVESGGGLVQAGGSLRLSCAASGSIFWTYAMGWYRQAPGKERELVAAITTGGSTYYADSVKGRFTISRDNAKNTVYLQMNSLKPEDTAVYYCAVDHLTRSGDGEYWGQGTQVTVSS”, the “polyreactivity (PSR sort gate)” value is reported as “high polyreactivity”.

On to “QVQLVESGGGLVQAGGSLRLSCAASGSIFWWNAMGWYRQAPGKERELVGAITVSGSSTHYADSVKGRFTISRDNAKNTVYLQMNSMKPEDTAVYYWGQGTQVTVSS”, for which the “polyreactivity (PSR sort gate)” value was “low polyreactivity”.

Take “QVQLVESGGGLVQAGGSLRLSCAASGSIFWYNAMAWYRQAPGKERELVAAITGTGDRTYYADSVKGRFTISRDNAKNSVYLQMNSLKPEDSAVYYCAAAYGAYYPWGYDYWGQGTQVTVSS”: the “polyreactivity (PSR sort gate)” value is “low polyreactivity”.

For the sequence “QVQLVESGGGLVQAGGSLRLSCAASGSIFWYNAMGWYRQAPGKEREFVATITNGTTTNYADSVKGRFTISCDNAKNTVYLQMNSLKPEDTAVYFCAVTGVYVKYDYWGQGTHVTVSS”, the “polyreactivity (PSR sort gate)” value is listed as “low polyreactivity”.

In the case of “QVQLVESGGGLVQAGGSLRLSCAASGSIFWYYAMGWYRQAPGKERELVAAISSGGSTNYADSVKGRFTISRDNAKNTVYLQMNSLKPEDTAVYYCAAGYAVSWYSAYDSGYWGQCTQVTVSS”, the “polyreactivity (PSR sort gate)” value is listed as “low polyreactivity”.

“QVQLVESGGGLVQAGGSLRLSCAASGSIFWYYAMGWYRQAPGKERELVAAISTSGTSTYYADSVKGRFTISRDNAKNTVYLQMNSLKPEDSAVYYCAKRSGARHRLMDYWGQGTQVTVSS”: the “polyreactivity (PSR sort gate)” value is on record as “low polyreactivity”.

“QVQLVESGGGLVQAGGSLRLSCAASGSIFWYYVMGWYRQAPGKERELVAAITISGAGTYYADSVKGRFTISRDNAKNTVYLQMNSLKPEDTAVYYCAARLLGHFYPFFLQGLSGFDYWGQGTQVTVSS”: the “polyreactivity (PSR sort gate)” value was “low polyreactivity”.
